{
  "source": "patent US20220195407",
  "about": "“OPTIMIZATION OF ENGINEERED MEGANUCLEASES FOR RECOGNITION SEQUENCES” (Precision BioSciences, Inc., published 2022)",
  "binders": {"B1": {"name": "LOX 3-4 GCAT (dsDNA)", "DNA 1": "GTATAGCATGCATTATACGAAG", "DNA 2": "CTTCGTATAATGCATGCTATAC"}, "B2": {"name": "LOX 3-4 GCGA (dsDNA)", "DNA 1": "GTATAGCATGCGATATACGAAG", "DNA 2": "CTTCGTATATCGCATGCTATAC"}, "B3": {"name": "LOX 3-4 GTAA (dsDNA)", "DNA 1": "GTATAGCATGTAATATACGAAG", "DNA 2": "CTTCGTATATTACATGCTATAC"}},
  "assay_in_all_cases": "cell_activity; CHO iGFFP reporter",
  "key": {"LOX 3-4m.1601": {"target": "T1, LOX 3-4m.1601 (artificial (I-CreI derived))", "T1 chain": "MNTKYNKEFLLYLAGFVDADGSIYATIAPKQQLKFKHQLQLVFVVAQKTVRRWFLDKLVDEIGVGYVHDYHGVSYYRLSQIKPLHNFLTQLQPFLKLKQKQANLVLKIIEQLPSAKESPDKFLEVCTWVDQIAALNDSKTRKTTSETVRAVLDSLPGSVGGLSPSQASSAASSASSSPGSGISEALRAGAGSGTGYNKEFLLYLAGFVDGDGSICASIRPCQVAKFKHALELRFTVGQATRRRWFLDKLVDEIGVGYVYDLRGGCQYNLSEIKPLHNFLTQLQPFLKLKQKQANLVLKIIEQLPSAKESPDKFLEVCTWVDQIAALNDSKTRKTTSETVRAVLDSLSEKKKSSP", "excerpt": "(§1) A CHO cell reporter system (see WO/2012/167192, FIG. 3) was used to determine whether the engineered meganucleases generated in these studies could recognize and cleave the modified LOX 3-4 recognition sequences in Table 87. To perform the assay, a pair of CHO cell reporter lines were produced, which carried a non-functional Green Fluorescent Protein (GFP) gene expression cassette integrated into the genome of the cell. The GFP gene in each cell line was interrupted by a pair of recognition sequences such that intracellular cleavage of either recognition sequence by a meganuclease would stimulate a homologous recombination event resulting in a functional GFP gene. In both cell lines, one of the recognition sequences was derived from the LOX 3-4 recognition sequence (i.e., those sequences disclosed in Table 87), and the second recognition sequence was specifically recognized by a control meganuclease called “CHO 23/24.” CHO reporter cells comprising a recognition sequence derived from the LOX 3-4 recognition sequence and the CHO 23/24 recognition sequence are referred to herein as “test cells.”\n(§2) Novel engineered meganucleases derived from the LOX 3-4x.109 meganuclease were prepared by making amino acid substitutions at one or more positions in the first subunit and one or more positions in the second subunit. These engineered meganucleases were then evaluated for cleavage of the LOX 3-4 recognition sequence modified to have a GCAT center sequence (SEQ ID NO: 292) in the CHO reporter assay according to Example 1. The substitutions in each subunit are provided in Tables 151 and 152, respectively. Novel meganucleases which were modified to comprise the residues recited in the tables below continued to cleave the LOX 3-4 recognition sequence having a GCAT four base pair center sequence."}, "LOX 3-4m.1687": {"target": "T2, LOX 3-4m.1687 (artificial (I-CreI derived))", "T2 chain": "T1 chain with A19G, V50R, H71R, Q80E, G210A, R241S, R262H, G264A, E271Q, K330H", "excerpt": "as §1, §2"}, "LOX 3-4m.1679": {"target": "T3, LOX 3-4m.1679 (artificial (I-CreI derived))", "T3 chain": "T1 chain with V50R, H71R, G72N, V73T, A239I, R241K, R262G, G263N, G264S", "excerpt": "as §1, §2"}, "LOX 3-4m.1689": {"target": "T4, LOX 3-4m.1689 (artificial (I-CreI derived))", "T4 chain": "T1 chain with V50R, H71A, G72A, V73T, R241H, R262G, G263T, G264S, C265A, E271Q", "excerpt": "as §1, §2"}, "LOX 3-4m.1781": {"target": "T5, LOX 3-4m.1781 (artificial (I-CreI derived))", "T5 chain": "T1 chain with V50R, H71N, G72R, A239S, R262G, G263R, G264I, C265S, K330R", "excerpt": "as §1\n(§3) Novel engineered meganucleases derived from the LOX 3-4x.109 meganuclease were prepared by making amino acid substitutions at one or more positions in the first subunit and one or more positions in the second subunit. These engineered meganucleases were then evaluated for cleavage of the LOX 3-4 recognition sequence modified to have a GCGA center sequence (SEQ ID NO: 314) in the CHO reporter assay according to Example 1."}, "LOX 3-4m.1745": {"target": "T6, LOX 3-4m.1745 (artificial (I-CreI derived))", "T6 chain": "T1 chain with V50R, H71S, V73T, A239T, R262G, G263R, G264I, C265S, E271Q, K330R", "excerpt": "as §1, §3"}, "LOX 3-4m.1780": {"target": "T7, LOX 3-4m.1780 (artificial (I-CreI derived))", "T7 chain": "T1 chain with V50R, H71S, Q80E, A239Q, R262G, G263R, G264I, C265S, E271Q, K330R", "excerpt": "as §1, §3"}, "LOX 3-4m.1782": {"target": "T8, LOX 3-4m.1782 (artificial (I-CreI derived))", "T8 chain": "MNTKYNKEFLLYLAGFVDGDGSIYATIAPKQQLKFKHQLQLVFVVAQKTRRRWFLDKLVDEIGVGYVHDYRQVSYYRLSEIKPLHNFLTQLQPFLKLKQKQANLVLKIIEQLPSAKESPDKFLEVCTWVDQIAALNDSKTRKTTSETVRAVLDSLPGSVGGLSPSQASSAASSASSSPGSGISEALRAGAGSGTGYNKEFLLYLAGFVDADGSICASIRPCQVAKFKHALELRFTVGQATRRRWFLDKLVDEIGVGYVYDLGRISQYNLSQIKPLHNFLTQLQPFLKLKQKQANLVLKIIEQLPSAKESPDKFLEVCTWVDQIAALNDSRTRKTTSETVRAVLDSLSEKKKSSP", "excerpt": "as §1, §3"}, "LOX 3-4 M.15": {"target": "T9, LOX 3-4 M.15 (artificial (I-CreI derived))", "T9 chain": "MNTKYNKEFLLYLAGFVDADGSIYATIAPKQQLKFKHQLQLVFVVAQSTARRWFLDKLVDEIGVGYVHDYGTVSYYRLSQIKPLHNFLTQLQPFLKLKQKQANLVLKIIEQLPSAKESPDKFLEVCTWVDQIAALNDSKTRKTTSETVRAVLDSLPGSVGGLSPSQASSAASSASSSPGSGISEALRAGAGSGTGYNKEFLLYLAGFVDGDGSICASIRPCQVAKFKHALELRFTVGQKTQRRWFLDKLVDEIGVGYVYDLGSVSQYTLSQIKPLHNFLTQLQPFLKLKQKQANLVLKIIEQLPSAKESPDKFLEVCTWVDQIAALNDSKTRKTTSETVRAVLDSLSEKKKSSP", "excerpt": "as §1\nas §2, with “first” for “first subunit and one or more positions in the second”, “GTAA” for “GCAT”, “358)” for “292)”, “1.” for “1. The substitutions in each subunit are provided in Tables 151 and 152, respectively.”, “were capable of cleaving” for “continued to cleave”"}, "LOX 3-4 M.23": {"target": "T10, LOX 3-4 M.23 (artificial (I-CreI derived))", "T10 chain": "T9 chain with A19S, S48A, A50R, G71R, T72N, S74A, K139R", "excerpt": "as §1\nas §2, with “first” for “first subunit and one or more positions in the second”, “GTAA” for “GCAT”, “358)” for “292)”, “1.” for “1. The substitutions in each subunit are provided in Tables 151 and 152, respectively.”, “were capable of cleaving” for “continued to cleave”"}, "LOX 3-4 M.6": {"target": "T11, LOX 3-4 M.6 (artificial (I-CreI derived))", "T11 chain": "T9 chain with S48R, A50R, G71N, T72A, K139R", "excerpt": "as §1\nas §2, with “first” for “first subunit and one or more positions in the second”, “GTAA” for “GCAT”, “358)” for “292)”, “1.” for “1. The substitutions in each subunit are provided in Tables 151 and 152, respectively.”, “were capable of cleaving” for “continued to cleave”"}},
  "note": "Numbering of substitutions follows the chain as printed.",
  "data": [
    {"binder": "B1", "values": [
      {"measurement": "activity", "setting": "LOX 3-4m.1601", "value": 10.9, "unit": "% GFP"},
      {"measurement": "activity", "setting": "LOX 3-4m.1687", "value": 10.9, "unit": "% GFP"},
      {"measurement": "activity", "setting": "LOX 3-4m.1679", "value": 10.8, "unit": "% GFP"},
      {"measurement": "activity", "setting": "LOX 3-4m.1689", "value": 11.2, "unit": "% GFP"}
    ]},
    {"binder": "B2", "values": [
      {"measurement": "activity", "setting": "LOX 3-4m.1781", "value": 6.58, "unit": "% GFP"},
      {"measurement": "activity", "setting": "LOX 3-4m.1745", "value": 5.13, "unit": "% GFP"},
      {"measurement": "activity", "setting": "LOX 3-4m.1780", "value": 6.53, "unit": "% GFP"},
      {"measurement": "activity", "setting": "LOX 3-4m.1782", "value": 5.45, "unit": "% GFP"}
    ]},
    {"binder": "B3", "values": [
      {"measurement": "activity", "setting": "LOX 3-4 M.15", "value": 11.5, "unit": "% GFP"},
      {"measurement": "activity", "setting": "LOX 3-4 M.23", "value": 13.2, "unit": "% GFP"},
      {"measurement": "activity", "setting": "LOX 3-4 M.6", "value": 11.4, "unit": "% GFP"}
    ]}
  ]
}
